Source: paper PMC6585716 (Biopolymers, 2017)
code X = not defined here; Az4 = not defined here

Target: Recombinant human vascular endothelial growth factor (VEGF165) (human, UniProt P15692-4 1-191)
Settings: both partners purified

Chain of Recombinant human vascular endothelial growth factor (VEGF165) (P15692 other isoform, or with tags, fused parts or gaps): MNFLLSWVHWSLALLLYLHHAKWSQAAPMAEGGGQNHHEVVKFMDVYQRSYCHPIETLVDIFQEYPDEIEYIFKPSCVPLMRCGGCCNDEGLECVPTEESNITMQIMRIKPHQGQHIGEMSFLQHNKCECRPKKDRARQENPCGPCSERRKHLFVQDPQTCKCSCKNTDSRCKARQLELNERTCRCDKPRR

B1: AnchorV (X-VEPNCDIHVMWEWECFERL-Az4) (peptide)
peptide: {code X}-VEPNCDIHVMWEWECFERL-Az4
modifications: cysteine pairing not given here; reading uncertain
notes: also called anti-VEGF cyclic peptide ligand
- EC50: 140 ± 21 nM
